Measurements: patent US20080020978A1 (Amgen, published 2008)
Numbered stars: 1 amine (or outer) side, 2 acyl side, 3 side chain; on linkers, the order of the positions; unused ones are H or OH. Square brackets hold non-standard residues; d marks the D form. * marks the point of attachment. octavalent 20 kDa PEG = 20 kDa PEG with eight arms, each linked to one peptide copy through Cys; tetravalent 20 kDa PEG = 20 kDa PEG with four arms, each linked to one peptide copy through Cys; trivalent 20 kDa PEG = 20 kDa PEG with three arms, each linked to one peptide copy through Cys; 13C1,2Ac = N-terminal acetyl group labelled with 13C at carbons 1 and 2, [13CH3][13C](=O)*; 15N‑F = phenylalanine labelled with 15N, O=C([C@H](Cc1ccccc1)[15NH][*:1])[*:2]; hArg = N=C(N)NCCCC[C@H](N)C(=O)O; 3IPA = not defined here

B1: SEQ ID NO 885 (peptide)
peptide: Ac-WVTHQLAGLLSQSGGVV[hArg]KNFVPTDVGPFAF-NH2
SMILES: CC(=O)N[C@@H](Cc1c[nH]c2ccccc12)C(=O)N[C@H](C(=O)N[C@H](C(=O)N[C@@H](Cc1c[nH]cn1)C(=O)N[C@@H](CCC(N)=O)C(=O)N[C@@H](CC(C)C)C(=O)N[C@@H](C)C(=O)NCC(=O)N[C@@H](CC(C)C)C(=O)N[C@@H](CC(C)C)C(=O)N[C@@H](CO)C(=O)N[C@@H](CCC(N)=O)C(=O)N[C@@H](CO)C(=O)NCC(=O)NCC(=O)N[C@H](C(=O)N[C@H](C(=O)N[C@@H](CCCCNC(=N)N)C(=O)N[C@@H](CCCCN)C(=O)N[C@@H](CC(N)=O)C(=O)N[C@@H](Cc1ccccc1)C(=O)N[C@H](C(=O)N1CCC[C@H]1C(=O)N[C@H](C(=O)N[C@@H](CC(=O)O)C(=O)N[C@H](C(=O)NCC(=O)N1CCC[C@H]1C(=O)N[C@@H](Cc1ccccc1)C(=O)N[C@@H](C)C(=O)N[C@@H](Cc1ccccc1)C(N)=O)C(C)C)[C@@H](C)O)C(C)C)C(C)C)C(C)C)[C@@H](C)O)C(C)C
B2: SEQ ID NO 779 (peptide)
peptide: {Ac-3IPA}-VTHRLAGLLSRSGGVVRC(20 kDa MeO‑PEG)NFVPTDVGPFAF-NH2
modifications: reading uncertain; also: places 3IPA at position 1, printed as Ac-[3IPA]-VTHRLAGLLSRSGGVVRC^(20 kDa MeO-PEG)NFVPTDVGPFAF-amide
B3: SEQ ID NO 778 (peptide)
peptide: {Ac-3IPA}-VTHRLAGLLSRSGGVVRCNFVPTDVGPFAF-NH2
modifications: reading uncertain; also: places 3IPA at position 1, printed as Ac-[3IPA]-VTHRLAGLLSRSGGVVRCNFVPTDVGPFAF-amide
B4: SEQ ID NO 776 (peptide)
peptide: Ac-WVTHRLAGLLS[dR]SGGVVRCNFVPTDVGPFAF-NH2
SMILES: CC(=O)N[C@@H](Cc1c[nH]c2ccccc12)C(=O)N[C@H](C(=O)N[C@H](C(=O)N[C@@H](Cc1c[nH]cn1)C(=O)N[C@@H](CCCNC(=N)N)C(=O)N[C@@H](CC(C)C)C(=O)N[C@@H](C)C(=O)NCC(=O)N[C@@H](CC(C)C)C(=O)N[C@@H](CC(C)C)C(=O)N[C@@H](CO)C(=O)N[C@H](CCCNC(=N)N)C(=O)N[C@@H](CO)C(=O)NCC(=O)NCC(=O)N[C@H](C(=O)N[C@H](C(=O)N[C@@H](CCCNC(=N)N)C(=O)N[C@@H](CS)C(=O)N[C@@H](CC(N)=O)C(=O)N[C@@H](Cc1ccccc1)C(=O)N[C@H](C(=O)N1CCC[C@H]1C(=O)N[C@H](C(=O)N[C@@H](CC(=O)O)C(=O)N[C@H](C(=O)NCC(=O)N1CCC[C@H]1C(=O)N[C@@H](Cc1ccccc1)C(=O)N[C@@H](C)C(=O)N[C@@H](Cc1ccccc1)C(N)=O)C(C)C)[C@@H](C)O)C(C)C)C(C)C)C(C)C)[C@@H](C)O)C(C)C

What follows are binders tested against T1, CGRP1 receptor (CRLR/RAMP1 complex) of human neuroblastoma SK-N-MC cells (human, UniProt Q16602 23-461; O60894 27-148) (assay: cell-based or functional assay).
T1 sequence (Q16602 23-461, chain 1 of 2): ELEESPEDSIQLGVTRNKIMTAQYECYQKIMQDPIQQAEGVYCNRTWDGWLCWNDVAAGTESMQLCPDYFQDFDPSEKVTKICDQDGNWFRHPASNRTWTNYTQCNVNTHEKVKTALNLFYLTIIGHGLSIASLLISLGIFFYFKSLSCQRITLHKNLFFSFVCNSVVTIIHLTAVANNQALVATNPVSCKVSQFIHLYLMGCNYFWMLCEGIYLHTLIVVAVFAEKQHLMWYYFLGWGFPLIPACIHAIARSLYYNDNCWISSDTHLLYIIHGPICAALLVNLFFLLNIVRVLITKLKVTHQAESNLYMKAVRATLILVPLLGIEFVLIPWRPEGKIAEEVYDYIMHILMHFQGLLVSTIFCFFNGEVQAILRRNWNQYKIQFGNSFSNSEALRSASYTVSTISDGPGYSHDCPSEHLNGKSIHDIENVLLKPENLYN
T1 sequence (O60894 27-148, chain 2 of 2): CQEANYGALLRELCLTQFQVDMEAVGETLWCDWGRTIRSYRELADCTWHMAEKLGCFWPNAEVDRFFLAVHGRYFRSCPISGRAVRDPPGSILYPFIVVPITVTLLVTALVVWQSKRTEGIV

Going from B1 to WVTHXLAGLLSXSGGVVXKNFVPTDVGPFAF (Ac-WVTH[hCit]LAGLLS[hCit]SGGVV[hArg]KNFVPTDVGPFAF-NH2) [SEQ ID NO 886], the “Peptide IC50” value rises from 1.42 nM to 4.96 nM (3.5-fold).

With Ac-WVTHQLAGLLSQSGGVV[hArg]KNFVPTDVGPFAF-NH2 (also: PEG-conjugated, in most cases at Lys25) [PEG-peptide of SEQ ID NO 885] the “PEG-peptide IC50” value was 12.4 nM.

Target: T1, CGRP1 receptor (CRLR/RAMP1 complex) of …
Experiment: cell-based or functional assay
Remark: another data set of the same source

Going from Ac-WVTHRLAGLLS[dR]SGGVVRC(MeO‑PEG 20 kDa)NFVPTDVGPFAF-NH2 [SEQ ID NO 777] to Ac-WVTHRLAGLLSQSGGVVRC(20 kDa MeO‑PEG)NFVPTDVGPFAF-NH2 [SEQ ID NO 775], the “IC50” value falls from 19.4 nM to 4.69 nM (4.1-fold).

First: Ac-WVTHRLAGLLSRSGGVVRC(20 kDa NEM‑PEG)NFVPTDVGPFAF-NH2 [SEQ ID NO 771]
Second: Ac-WVTHRLAGLLSRSGGVVRC(20 kDa branched MeO‑PEG2)NFVPTDVGPFAF-NH2 [SEQ ID NO 770]
The “IC50” value of the first is 1.8-fold higher: 0.3 nM for the first, 0.17 nM for the second.

Going from B2 to Ac-WVTHQLAGLLSQSGGVVRK(20 kDa MeO‑PEG)NFVPTDVGPFAF-NH2 [SEQ ID NO 817], the “IC50” value rises from 2.22 nM to 5.24 nM (2.4-fold).

Compared with Ac-WVTHRLAGLLSRSGGVVRC(tetravalent 20 kDa PEG)NFVPTDVGPFAF-NH2 (also: tetravalent PEG joins four peptide copies) [SEQ ID NO 782], Ac-WVTHRLAGLLSRSGGVVRCNFVPTDVGPFAF-NH2 [SEQ ID NO 764] is 11-fold higher in “IC50” value: 0.08 nM for the first, 0.91 nM for the second.

Going from Ac-WVTHRLAGLLSRSGGVVRC(40 kDa branched MeO‑PEG2)NFVPTDVGPFAF-NH2 [SEQ ID NO 769] to WVTHRLAGLLSRSGGVVRNCFVPTDVGPFAF (Ac-WVTHRLAGLLSRSGGVVRNC^(20 kDa MeO-PEG)FVPTDVGPFAF-amide) [SEQ ID NO 801], the “IC50” value falls from 33.4 nM to 1.64 nM (20-fold).

Compared with Ac-WVTHRLAGLLSASGGVVRC(20 kDa MeO‑PEG)NFVPTDVGPFAF-NH2 [SEQ ID NO 773], B3 is 18-fold lower in “IC50” value: 6.2 nM for the first, 0.35 nM for the second.

Going from Ac-WVTHRLAGLLSRSGGVVRC(20 kDa branched MeO‑PEG2)NFVPTDVGPFAF-NH2 [SEQ ID NO 768] to Ac-WVTHRLAGLLSQSGGVVRK(20 kDa MeO‑PEG)NFVPTDVGPFAF-NH2 [SEQ ID NO 815], the “IC50” value falls from 23.8 nM to 0.46 nM (52-fold).

Compared with Ac-WVTHRLAGLLSRSGGVCRNNFVPTDVGPFAF-NH2 [SEQ ID NO 820], Ac-WVTHRLAGLLSRSGGVVRC(trivalent 20 kDa PEG)NFVPTDVGPFAF-NH2 (also: trivalent PEG joins three peptide copies) [SEQ ID NO 781] is 1.9-fold lower in “IC50” value: 0.36 nM for the first, 0.19 nM for the second.

First: Ac-WVTHQLAGLLSQSGGVVRK(20 kDa MeO‑PEG)NFVPTDVGPFAF-NH2 [SEQ ID NO 818]
Second: {13C1,2Ac}-WVTHRLAGLLSRSGGVVRK(20 kDa MeO‑PEG)NFVPTDVGPFA[15N‑F]-NH2 [SEQ ID NO 803]
The “IC50” value of the first is 2.2-fold higher: 7.18 nM for the first, 3.28 nM for the second.

Compared with Ac-WVTHRLAGLLSRSGGVVRC(30 kDa MeO‑PEG)NFVPTDVGPFAF-NH2 [SEQ ID NO 767], WVTHXLAGLLSXSGGVVRKNFVPTDVGPFAF (Ac-WVTH[hArg]LAGLLS[hArg]SGGVVRKNFVPTDVGPFAF-amide) [SEQ ID NO 784] is 3.7-fold lower in “IC50” value: 7.86 nM for the first, 2.1 nM for the second.

WVTHXLAGLLSRSGGVVRKNFVPTDVGPFAF (Ac-WVTH[hArg]LAGLLSRSGGVVRKNFVPTDVGPFAF-amide) [SEQ ID NO 788] and WVTHXLAGLLSXSGGVVRKNFVPTDVGPFAF (Ac-WVTH[hArg]LAGLLS[hArg]SGGVVRK^(20 kDa MeO-PEG)NFVPTDVGPFAF-amide) [SEQ ID NO 785] are within 1.5-fold of each other in “IC50” value: 0.44 nM for the first, 0.37 nM for the second.

First: WVTHRLAGLLSXSGGVVRKNFVPTDVGPFAF (Ac-WVTHRLAGLLS[Cit]SGG VVRKNFVPTDVGPFAF-amide) [SEQ ID NO 796]
Second: WVTHRLAGLLSXSGGVVRKNFVPTDVGPFAF (Ac-WVTHRLAGLLS[hArg]SGGVVRK^(20 kDa MeO-PEG)NFVPTDVGPFAF-amide) [SEQ ID NO 787]
The “IC50” value of the first is 1.8-fold higher: 0.58 nM for the first, 0.33 nM for the second.

Going from WVTHXLAGLLSRSGGVVRKNFVPTDVGPFAF (Ac-WVTH[Cit]LAGLLSRSGGV VRKNFVPTDVGPFAF-amide) [SEQ ID NO 798] to WVTHXLAGLLSXSGGVVRKNFVPTDVGPFAF (Ac-WVTH[Cit]LAGLLS[Cit]SGG VVRKNFVPTDVGPFAF-amide) [SEQ ID NO 790], the “IC50” value rises from 0.57 nM to 1.7 nM (3-fold).

Compared with WVTHRLAGLLSXSGGVVRKNFVPTDVGPFAF (Ac-WVTHRLAGLLS[Cit]SGG VVRK^(20 kDa MeO-PEG)NFVPTDVGPFAF-amide) [SEQ ID NO 797], WVTHXLAGLLSRSGGVVRKNFVPTDVGPFAF (Ac-WVTH[Cit]LAGLLSRSGGV VRK^(20 kDa MeO-PEG)NFVPTDVGPFAF-amide) [SEQ ID NO 799] is 2.2-fold higher in “IC50” value: 0.96 nM for the first, 2.08 nM for the second.

First: WVTHRLAGLLSXSGGVVRKNFVPTDVGPFAF (Ac-WVTHRLAGLLS[hArg]SGGVVRKNFVPTDVGPFAF-amide) [SEQ ID NO 786]
Second: WVTHXLAGLLSRSGGVVRKNFVPTDVGPFAF (Ac-WVTH[hArg]LAGLLSRSGGVVRK^(20 kDa MeO-PEG)NFVPTDVGPFAF-amide) [SEQ ID NO 789]
The “IC50” value of the first is 1.6-fold higher: 0.57 nM for the first, 0.36 nM for the second.

Ac-WVTHRLAGLLSRSGGVVRC(5 kDa MeO‑PEG)NFVPTDVGPFAF-NH2 [SEQ ID NO 765] and Ac-WVTHRLAGLLSASGGVVRCNFVPTDVGPFAF-NH2 [SEQ ID NO 772] are within 1.5-fold of each other in “IC50” value: 2.52 nM for the first, 2.75 nM for the second.

Compared with B4, Ac-WVTHRLAGLLSRSGGVVRC(octavalent 20 kDa PEG)NFVPTDVGPFAF-NH2 (also: eight peptides linked via Cys to one octavalent 20 kDa PEG) [SEQ ID NO 783] is 2.4-fold higher in “IC50” value: 0.59 nM for the first, 1.4 nM for the second.

Ac-WVTHQLAGLLSQSGGVVRKNFVPTDVGPFAF-NH2 [SEQ ID NO 816] and Ac-WVTHRLAGLLSQSGGVVRKNFVPTDVGPFAF-NH2 [SEQ ID NO 814] are within 1.5-fold of each other in “IC50” value: 0.53 nM for the first, 0.47 nM for the second.
